The supplement of paper PMC10567573
± gives the standard deviation.

Test: protein stability index of a GFP-peptide fusion (GPS, HEK-293T) (PSI 1-6); higher = more stable
Conditions: c terminus: a fixed tail appended
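Note: 24-mer peptide tiles fused after GFP, lentivirally expressed, FACS-sorted into six equal bins by GFP/DsRed ratio, decoded by Illumina sequencing, PSI is the read-weighted mean bin number.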

| Sequence | protein stability index (treatment: DMSO) | protein stability index (treatment: MLN4924 1 uM, 8 h) |
| --- | --- | --- |
| SIERSHRIATETDQIGSEIIEELG [VTI1B] | 4.88 ± 0.33 | 5 ± 0.2 |
| CGDVHGQFHDLMELFRIGGKSPDT [PPP2CA] | 2.69 ± 0.34 | 2.84 ± 0.15 |
| EVQHLREEKSKQFLDLMETIDKQR [LRRC45] | 4.51 ± 0.32 | 4.49 ± 0.25 |
| SNPNGNGGFMGYSAENIPGCSSSG [CRY1] | 4.57 ± 0.24 | 4.34 ± 0.35 |
| NPTRQDESIQRIAVHLCNALVCQV [ZER1] | 2.48 ± 0.74 | 2.27 ± 0.16 |
| HLPADSEVTLEANPTSAPGSRLAE [RSAD1] | 5.49 ± 0.077 | 5.39 ± 0.24 |
| SILLCLLASGLVVFFLFPHSVLVD [TMEM106C] | 3 ± 0.49 | 2.56 ± 0.044 |
| TSDASFHPAFLPQRQAIKGAFYRR [KCNG1] | 3.62 ± 0.097 | 3.66 ± 0.13 |
| QGGKDFNVPLSISRLTPGGKAAQA [PDLIM7] | 4.23 ± 0.26 | 4.35 ± 0.15 |
| TVVREVIFLGFSSLARLQQLLFVI [OR10K2] | 3.15 ± 0.73 | 2.87 ± 0.55 |
| KHIPYREHKSLTGTARYMSINTHL [CSNK1G3] | 2.41 ± 0.088 | 2.51 ± 0.32 |
| PFDGLLEERALLLGRMGKHEQALF [VPS39] | 2.59 ± 0.28 | 2.67 ± 0.37 |
| YLLTVMAAAAKAFKHPSIRNPVSL [ADAMTS4] | 2.56 ± 0.62 | 2.15 ± 0.32 |
| EFPEARIFEETLNILIYETPRGPD [KCTD13] | 2.48 ± 0.15 | 2.5 ± 0.44 |
| QLERPLPLTSVCYPQDLPRPLRSR [TRAF3IP2] | 4.05 ± 0.21 | 4.1 ± 0.24 |
| YDLEYWAFHDGQRSRLRPRDDLDR [TRIM14] | 3.52 ± 0.36 | 3.69 ± 0.34 |
| TFFEVSPLCNFNITESFTELARIV [RAB40B] | 2.24 ± 0.51 | 2.14 ± 0.16 |
| SGHGDAHLQEYAGNFQGIRFHYDR [FATE1] | 3.32 ± 0.17 | 3.33 ± 0.1 |
| LTKYPTDRDSIWKCLKFLGSRHPT [INTS4] | 2.38 ± 0.19 | 2.39 ± 0.095 |
| TSFSNYYRTWNVVVHDWLYSYVYQ [SOAT2] | 3.11 ± 0.27 | 3.01 ± 0.4 |
| KFLEICKLSGFMSKLVPAIQNAHK [TPRG1] | 2.27 ± 0.74 | 2.81 ± 1 |
| AQYDSWPHYPEYFQQPAPEYHQPQ [LOXL2] | 3.62 ± 0.48 | 3.8 ± 0.49 |

| Sequence | protein stability index (treatment: DMSO) | protein stability index (treatment: MLN4924 1 uM, 8 h) |
| --- | --- | --- |
| EAAPRQCIELYFDEKYSIEPSWEC [NETO1] | 2.48 ± 0.2 | 2.73 ± 0.57 |
| LVSPERAQPPDYTFPSGSGAHFPQ [PI4K2A] | 3.96 ± 0.3 | 4.13 ± 0.25 |
| GKKFLLLSINRYERKKNLTLALEA [ALG2] | 2.35 ± 0.88 | 2.6 ± 0.39 |
| GGSGGGAGGAGGGVTEEQEGFADG [JUNB] | 5.5 ± 0.087 | 5.42 ± 0.43 |
| LWARGTWTQATGLGCALLAAHAVV [SOAT2] | 3.01 ± 0.11 | 3.2 ± 1.6 |
| CADVLFILQDQEHIFAHRIYLATS [RHOBTB1] | 2.93 ± 0.44 | 2.89 ± 0.48 |
| AGLSLLSPSVMRLVHTQEPGEWLE [ALKBH7] | 2.71 ± 0.38 | 2.79 ± 0.24 |
| GLRQRASNKVQDSAPVETPRGKPP [HMOX1] | 5 ± 0.25 | 4.83 ± 0.2 |
| LVRTLYKVQNECPGITRVYSIGRS [CPN1] | 2.27 ± 0.55 | 2.11 ± 0.14 |
| EEMWTFRGKIHAFRGQILGFWEEE [CCDC70] | 2.15 ± 0.41 | 2.35 ± 0.26 |
| MDDPKGDFITLYQMASQSSASHYK [M1AP] | 3.27 ± 0.25 | 3.31 ± 0.22 |
| RKSSFAFYQAVRDLLPVWLLEDMR [ANKRD9] | 3.03 ± 0.99 | 2.21 ± 0.38 |
| HMLNQVESKVKDILSKVQKNHVGK [FAM98B] | 2.55 ± 0.51 | 2.36 ± 0.32 |
| SWEKVTGHNSPLYKRQEESGAAAS [CHIT1] | 4.77 ± 0.37 | 4.51 ± 0.32 |
| PMPWLVLSEIFPGGIRGRAMALTS [SLC2A12] | 2.5 ± 0.16 | 2.33 ± 0.38 |
| EQCLPSLENSKYCRFNQDPEAVDE [ATE1] | 5.16 ± 0.45 | 5.16 ± 0.26 |
| GPSNTSHSSSRDSHLSNGLDPVAE [C2CD2L] | 5.337 ± 0.041 | 5.23 ± 0.089 |
| VKTWFQNQRMKSKRWQKNNWPKNS [NANOGP8] | 2.21 ± 0.57 | 2.42 ± 0.38 |
| RNVTGTPLTGDKDDEEVDTHFASQ [ADAMTSL2] | 5.5 ± 0.22 | 5.32 ± 0.27 |
| NWRYATGGWETVFRPVSETCTDRS [FUT8] | 2.21 ± 0.42 | 3 ± 0.67 |
| LQPLSKPLSSQPQAIVTEDKTDIS [MLH1] | 5.31 ± 0.19 | 5.19 ± 0.14 |
| DDIEEKTPISNEVEMESEEQIAER [KMT2E] | 5.8 ± 0.16 | 5.66 ± 0.26 |
